The source of these data is patent publication US20230181750A1 (CRISPR THERAPEUTICS, published 2023).

The chains are these.
B1: mask peptide M4 (peptide)
peptide: CTFPNTTMQRTFC
notes: Selected by phage display (Screen 2)
B2: mask peptide M14 (peptide)
peptide: CTHVAQWAIKAFC
notes: as for B1
B3: mask peptide M9 (peptide)
peptide: CHIGKRPVPCLWI
notes: as for B1
B4: mask peptide M6 (peptide)
peptide: VCTYPPAHRTRFC
notes: as for B1
B5: mask peptide M13 (peptide)
peptide: CTYPPRFHMHWLC
notes: as for B1
B6: mask peptide M11 (peptide)
peptide: CTMPSHAVASFLC
notes: as for B1
B7: mask peptide M5 (peptide)
peptide: CTYPSWVAYIRFC
notes: as for B1
B8: mask peptide M8 (peptide)
peptide: WCTIPSSMSIRLC
notes: as for B1
B9: mask peptide M3 (peptide)
peptide: CTMPPSPRSKVIC
notes: Selected by phage display (Screen 2, XnCXnCXn library)
B10: mask peptide M10 (peptide)
peptide: CYIGLRMVPCFHM
notes: as for B1
B11: mask peptide M7 (peptide)
peptide: CTMPYHIHSIGLC
notes: as for B1
B12: mask peptide M12 (peptide)
peptide: CTMPVHTYSQWLC
notes: as for B1
B13: mask peptide P2 (peptide)
peptide: HEEVHMRPNKLSLTWAYTGPQLR
notes: Selected by phage display (Screen 1, X15/X19 library)
B14: mask peptide P1 (peptide)
peptide: EVAPGKRWFYNHVKQVPHLV
notes: as for B13

The target of one test is T1, anti-PTK7 antibody Ab181.
T1 construct: also called unmasked antibody
As to the kind of experiment: phage display selection against Ab181, XnCXnCXn library.
As to B1, the binding result was “binds”.

B2: the binding result was “binds”.

For B3, the binding result was “binds”.

As for B4, the binding result was “binds”.

For the molecule B5, the binding result is reported as “binds”.

Consider B6, for which the binding result is given as “binds”.

Turning to B7, the binding result is on record as “binds”.

Regarding B8, the binding result is “binds”.

As to B9, the binding result was “binds”.

As for B10, the binding result is recorded as “binds”.

In the case of B11, the binding result is reported as “binds”.

Regarding B12, the binding result was “binds”.

In the next test the target is T1, anti-PTK7 antibody Ab181. As to the kind of experiment: phage display selection against Ab181, X15/X19 library.
Take B13: the binding result is “binds”.

In the case of B14, the binding result is recorded as “binds”.
